Consider 9 molecules from patent publication US20190248902A1 (published 2019).

The target in experiment [1] is T1, human ASGR-1 mutant construct H203 (human, UniProt P07306 1-291).
T1 construct: Arg/Glu scanning: non-arginine residues were changed to arginine; Transiently expressed on CHO-S cells
T1 sequence: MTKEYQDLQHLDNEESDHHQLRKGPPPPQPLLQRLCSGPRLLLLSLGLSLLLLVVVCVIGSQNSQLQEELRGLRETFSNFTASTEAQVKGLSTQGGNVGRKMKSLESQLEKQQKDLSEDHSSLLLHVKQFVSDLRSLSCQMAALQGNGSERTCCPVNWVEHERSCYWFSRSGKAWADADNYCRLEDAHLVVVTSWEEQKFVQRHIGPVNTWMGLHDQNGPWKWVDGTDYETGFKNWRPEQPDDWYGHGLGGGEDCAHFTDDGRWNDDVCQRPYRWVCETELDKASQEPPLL
Description: FACS, transfected CHO-S cells, mAb 5 ug/ml. The procedure:
(§1) The ability of human ASGR-1-specific, ligand competing antibodies to bind to the mutant hASGR-1 proteins was assessed by FACS as described above.
(§2) Antibodies were tested for binding to the individual mutant and wild type ASGR-1 constructs using normalized antibody concentrations (5 ug/ml). CHO—S cells transiently expressing the appropriate mutated or non-mutated antigen of interest were mixed with antibody sample or controls, incubated for 1 hour at 4° C., and then washed twice. Cells with bound antibody were then incubated with Alexa Fluor® 647 IgG Fc fragment-specific detection antibody and 7-AAD viability stain for 15 minutes at 4° C., washed once and resuspended in FACS buffer. Samples were analyzed using a BD Accuri™ Flow Cytometer and an Intellicyt HyperCyt Autosampler. As a negative control, supernatants and controls were also screened against CHO—S cells transfected with empty parental vector (referred to as mock). […] Because mutant hASGR-1 expression levels varied relative to each other, sample binding data for each construct was normalized for expression by dividing the binding data from an antibody not affected by the mutations (e.g., 65C12) by the binding values of each test antibody on a given mutant construct. Also, because the antibody binding affinities varied amongst the samples, the expression corrected data (above) was further normalized by comparing test antibody binding on each mutant construct to wild type hASGR-1. Identification of specific mutations that affected test antibody binding was performed by an interquartile range (IQR) analysis to determine statistical outliers. A mutation was identified as a “hit” if the calculated values were >3× the IQR (above the 3rd quartile/upper fence) for a given mutant construct. Although IQR analysis was used here to determine signifance and identify hits, one skilled in the art will recognize that a number of methods could be employed in order to normalize the data (eg. using epitope-tagged constructs or other ASGR-1-binding antibodies directed against non-CBD epitopes).

Experiment [2] has as its target T2, human ASGR-1 (wild type) (human, UniProt P07306 1-291).
T2 construct: also called wt ASGR1; huASGR-1
T2 sequence: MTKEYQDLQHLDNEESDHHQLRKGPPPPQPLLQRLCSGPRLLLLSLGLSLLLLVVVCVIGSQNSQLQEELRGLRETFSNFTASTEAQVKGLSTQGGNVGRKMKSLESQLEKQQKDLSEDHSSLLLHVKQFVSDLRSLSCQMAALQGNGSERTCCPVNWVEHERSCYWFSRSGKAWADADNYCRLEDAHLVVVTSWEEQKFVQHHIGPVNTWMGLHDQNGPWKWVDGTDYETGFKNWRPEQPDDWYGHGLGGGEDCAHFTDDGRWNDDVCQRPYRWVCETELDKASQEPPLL
Put plainly: FACS, transfected CHO-S cells, mAb 5 ug/ml. The procedure: as §1, §2

Experiment [3] addresses T1, human ASGR-1 mutant construct H203. Put plainly: FACS ratio: 65C12 geomean / this mAb geomean. The method, then:
(§3) Mutant hASGR-1 variants were constructed such that non-arginine residues were changed to arginine and where wild type arginine residues were mutated to glutamic acid. Each mutant hASGR-1 sequence was then cloned into a mammalian expression vector and used to transiently transfect CHOs cells. The ability of human ASGR-1-specific, ligand competing antibodies to bind to the mutant hASGR-1 proteins was assessed by FACS as described above.
(§4) Antibodies were tested for binding to the individual mutant and wild type ASGR-1 constructs using normalized antibody concentrations (5 ug/ml). CHO—S cells transiently expressing the appropriate mutated or non-mutated antigen of interest were mixed with antibody sample or controls, incubated for 1 hour at 4° C., and then washed twice. Cells with bound antibody were then incubated with Alexa Fluor® 647 IgG Fc fragment-specific detection antibody and 7-AAD viability stain for 15 minutes at 4° C., washed once and resuspended in FACS buffer. Samples were analyzed using a BD Accuri™ Flow Cytometer and an Intellicyt HyperCyt Autosampler. As a negative control, supernatants and controls were also screened against CHO—S cells transfected with empty parental vector (referred to as mock). […] Because mutant hASGR-1 expression levels varied relative to each other, sample binding data for each construct was normalized for expression by dividing the binding data from an antibody not affected by the mutations (e.g., 65C12) by the binding values of each test antibody on a given mutant construct. Also, because the antibody binding affinities varied amongst the samples, the expression corrected data (above) was further normalized by comparing test antibody binding on each mutant construct to wild type hASGR-1. Identification of specific mutations that affected test antibody binding was performed by an interquartile range (IQR) analysis to determine statistical outliers. A mutation was identified as a “hit” if the calculated values were >3× the IQR (above the 3rd quartile/upper fence) for a given mutant construct.

Experiment [4] has as its target T2, human ASGR-1 (wild type). Put plainly: FACS ratio: 65C12 geomean / this mAb geomean. The procedure:
as §3, §4

Experiment [5] deals with T1, human ASGR-1 mutant construct H203. Description: FACS ratio: H203 normalized value / wt normalized value. The method, then: as §1, §2

B1: 61A1 (antibody, V domains shown)
VH: QVQLQESGPGLVKPSETLSLTCTVSGGSISSHFWSWIRQPAGKGLEWIGRIYIRGSTNYNPSLKSRVTMSVDTSKNQFSLKLSSVTAADTAVYYCAREGKTGGVSYFDYWGQGTLVTVSS
VL: DIQMTQSPSSLSASVGDRVTITCRASQSISSYLNWYQQKPGKAPKLLIYAASSLQSGVPSRFSGSGSGTDFTLTISSLQPEDFAPYYCQQSYNISFTFGPGTKVDIK
notes: mAb
Turning to B1, the “FACS Binding Geomean” value in experiment [1] came out at 20100; with human ASGR-1 (wild type) [2], 40000. Besides, the “Expression Normalization to mAb 65C12” value in experiment [3] worked out at 1.28; in the experiment with human ASGR-1 (wild type) [4], 1.4. For the same molecule, the “Normalization to wt ASGR1 Binding” value in experiment [5] amounted to 0.911.

B2: 147E9 (antibody, V domains shown)
VH: EVQLVESGGGLVQPGGSLRLSCAASGFTFSSYSMNWVRQAPGKGLEWVSSISGRNTTIYYADSVKGRFTISRDNAKNSLYLQMNSLRDEDTAVYYCSRDRGSCWGQGTLVTVSS
VL: DIQMTQSPSSLSASVGDRVTITCRASQDINNYLAWFQQKPGKAPKSLIVAASSLQSGVPSKFSGSGSGTDFTLTISSLQPEDFATYYCQQYNSYPLTFGGGTKVEIK
notes: mAb
For B2, the “FACS Binding Geomean” value was 21500 in experiment [1] and 40200 with human ASGR-1 (wild type) [2]. The results for the “Expression Normalization to mAb 65C12” value (in experiment [3]; with human ASGR-1 (wild type) [4]) were 1.2 and 1.4, respectively. Further, the “Normalization to wt ASGR1 Binding” value in experiment [5] is 0.858.

B3: 85F7 (antibody, V domains shown)
VH: QVQLQQWGAGLLKPSEPLSLTCAVYGGSFSGPYWSWIRQPPGKGLEWIGEINHSGSTNYNPSLKSRVTISVDTSKNQFSLKLTSVTAADTAVYYCARDYGGLDVWGQGTTVTVSS
VL: EPVLTQSPGTLSLSPGERATLSCRASQNIYSNYLAWYQQKPGQAPRLLIYGASSRATGIPDRFSGSGSGTDFTLTISRLEPEDFAVYCCQQYESSPWTFGQGTKVEIK
notes: mAb
Turning to B3, the “FACS Binding Geomean” value in experiment [1] was 16500; in the experiment with human ASGR-1 (wild type) [2], 33000. Moreover, the “Expression Normalization to mAb 65C12” value in experiment [3] stood at 1.56; with human ASGR-1 (wild type) [4], 1.7. Also, the “Normalization to wt ASGR1 Binding” value in experiment [5] amounted to 0.917.

B4: 65D5 (antibody, V domains shown)
VH: QVQLVQSGAEVKKPGASVKVSCKASGYTFPSYGISWVRQAPGQGLEWMGWISAYSGNTNYAQKLQGRVTMTTDTSTSTAYMELRSLRSDDTAVYFCARGEAVAVFDPWGQGTLVTVSS
VL: DIQMTQSPSSLSASVGDRVTITCRASQDINNYLAWFQQKPGKAPRSLIYAASSLHSGVPSQFSASGSGSDFTLTISSLQPEDFATYYCPLYKSYPLTFGPGTKVDIK
notes: mAb
For B4, the figures for the “FACS Binding Geomean” value (in experiment [1]; with human ASGR-1 (wild type) [2]) were 20300 and 41000, respectively. In addition, the “Expression Normalization to mAb 65C12” value in experiment [3] turned out to be 1.27; with human ASGR-1 (wild type) [4], 1.37. The “Normalization to wt ASGR1 Binding” value in experiment [5] worked out at 0.928.

B5: 60C12 (antibody, V domains shown)
VH: QVQLVESGGGVVQPGRSLRLSCAASGFTFSSYGMHWVRQAPGKGLEWVAVIWYDGSNKYYVDSVKGRFTISRDNSKNTLYLQMNSLRAEDTAVYYCARRYSRSWTGGMDVWGQGTTVTVSS
VL: DIVMTQTPLSLSVTPGQPASISCKSSQSLLHSEGKTYLYWYLQKPGQPPQFLIYEVSNRFSGVPDRFSGSGSGTDFTLKISRVEAEDVGIYYCMQSIKYPLTFGGGTKVEIK
notes: mAb
As to B5, the “FACS Binding Geomean” value is 19800 in experiment [1] and 31300 with human ASGR-1 (wild type) [2]. Besides, the “Expression Normalization to mAb 65C12” value in experiment [3] was found to be 1.3; with human ASGR-1 (wild type) [4] it was 1.79. Also, the “Normalization to wt ASGR1 Binding” value in experiment [5] is 0.725.

B6: 173C11 (antibody, V domains shown)
VH: QVQLVESGGGVVQPGRSLRLSCAASGFTFSSYGIHWVRQAPGKGLEWVALIFYDGSNKYYADSVKGRFTISRDNSKNTLYLHMSSLRAEDTAVYYCARRYSSSWSGGMDVWGQGTTVTVSS
VL: DIVMTQTPLSLSVTPGQPASISCKSSQSLLHSEGKTYLYWYLQKPGQPPQLLIYEVSHRFSGVPDRFSGSGSGTDFTLKISRVEAEDVGVYYCMQSIQLLTFGGGTKVEIK
notes: mAb
As for B6, the results for the “FACS Binding Geomean” value (in experiment [1]; with human ASGR-1 (wild type) [2]) were 13900 and 28500, respectively. In addition, the “Expression Normalization to mAb 65C12” value in experiment [3] was determined as 1.86; in the experiment with human ASGR-1 (wild type) [4], 1.97. Moreover, the “Normalization to wt ASGR1 Binding” value in experiment [5] amounted to 0.945.

B7: 213B3 (antibody, V domains shown)
VH: QVQLVESGGGVVQPGRSLRLSCAASGFTFSSYGMHWVRQAPGKGLEWVAVIWYDGSNKNYADSVKGRFTISRDNSKNTLYLQMNSLRAEDTAVYYCARDRTVGYDGFDIWGQGTMVTVSS
VL: DIQMTQSPSSLSASVGDRVTITCRASQGIGKYLAWFQQKPGKAPKSLISAASSVLSGVPSKFSGSGSGTDFTLTISSLQPEDFATYYCQKYDTYPFTFGPGTKVDIK
notes: mAb
Consider B7, for which the results for the “FACS Binding Geomean” value (in experiment [1]; in the experiment with human ASGR-1 (wild type) [2]) were 12800 and 15100, respectively. The “Expression Normalization to mAb 65C12” value in experiment [3] stood at 2.01; in the experiment with human ASGR-1 (wild type) [4], 3.72. The “Normalization to wt ASGR1 Binding” value in experiment [5] was found to be 0.539.

B8: 56E3 (antibody, V domains shown)
VH: QVQLVQSGAEVKKPGASVKVSCKASGYTFNSYGFSWVRQAPGQGLEWMGWISAYNGNTKEAQKFQGRVTMTTDTSTSTAYMELRSLRADDTAVYYCARHDFWSGYYKGMDVWGQGTTVTVSS
VL: not shown
notes: mAb
Turning to B8, the “FACS Binding Geomean” value in experiment [1] was 20400; with human ASGR-1 (wild type) [2] it was 33900. For the same molecule, the “Expression Normalization to mAb 65C12” value worked out at 1.26 in experiment [3] and 1.66 with human ASGR-1 (wild type) [4]. Besides, the “Normalization to wt ASGR1 Binding” value in experiment [5] stood at 0.762.

B9: 175F4 (antibody, V domains shown)
VH: QVQLQQSGPGLVKPSQTLSLTCAISGDSVSSNSAAWNWIRQSPSRGLEWLGRTYYRSKWYNAYPVSMESRISINPDTSKNQFSLQLNSVTPEDTAVYYCARDKAAGRNDFYYYGMDVWGQGTTVTVSS
VL: QSALTQPASVSGSPGQSITISCTGTSSDVGRFNLVSWYQQHPGYAPKLMIYEVSKRPSGVSNRFSGSKSGNTASLTISGLQAEDEADYYCCSYAGSSTYVVFGGGTKLTVL
notes: mAb
Consider B9, for which the “FACS Binding Geomean” value in experiment [1] amounted to 14800; in the experiment with human ASGR-1 (wild type) [2], 33600. Also, the “Expression Normalization to mAb 65C12” value is 1.74 in experiment [3] and 1.67 with human ASGR-1 (wild type) [4]. Moreover, the “Normalization to wt ASGR1 Binding” value in experiment [5] is 1.04.
